{"source": "patent US20220242958A1", "about": "(published 2022)", "key": {"[1]": {"target": "T1, human CD4, cell-expressed (human, UniProt P01730 26-458)", "assay": "cell-based or functional assay"}, "IL12Rβ2-Fc": {"target": "T2, IL12Rβ2-Fc (human, UniProt Q99665 24-622)", "T2 construct": "extracellular domain; bought; also called hIL-12Rβ2-Fc; Fc-fusion of human IL12Rβ2 extracellular domain (R&D Systems #1959-B2)", "T2 sequence (looked up)": "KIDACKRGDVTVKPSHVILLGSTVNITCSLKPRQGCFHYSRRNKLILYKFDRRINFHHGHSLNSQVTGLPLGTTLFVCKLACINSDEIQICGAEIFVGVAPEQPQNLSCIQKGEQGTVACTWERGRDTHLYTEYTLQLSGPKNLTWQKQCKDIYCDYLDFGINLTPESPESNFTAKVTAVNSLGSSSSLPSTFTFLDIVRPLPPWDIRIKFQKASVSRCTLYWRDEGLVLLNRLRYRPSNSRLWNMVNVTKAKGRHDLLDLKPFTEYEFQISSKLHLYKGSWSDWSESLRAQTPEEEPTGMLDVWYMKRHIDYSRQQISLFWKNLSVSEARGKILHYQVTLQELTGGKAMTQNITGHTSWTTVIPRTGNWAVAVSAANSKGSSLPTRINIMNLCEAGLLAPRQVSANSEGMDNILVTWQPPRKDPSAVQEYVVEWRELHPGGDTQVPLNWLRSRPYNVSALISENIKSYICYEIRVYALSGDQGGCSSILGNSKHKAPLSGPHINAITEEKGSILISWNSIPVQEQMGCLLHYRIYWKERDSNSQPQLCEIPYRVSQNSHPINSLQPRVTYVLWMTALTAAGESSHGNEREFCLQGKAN", "assay": "SPR and competition ELISA, against IL12Rb2#1"}, "[2]": {"target": "CXCR4 and CD4 co-expressed on cells (human, UniProt P61073 1-352; P01730 26-458)", "sequence (P61073 whole entry, chain 1 of 2, other chains not shown)": "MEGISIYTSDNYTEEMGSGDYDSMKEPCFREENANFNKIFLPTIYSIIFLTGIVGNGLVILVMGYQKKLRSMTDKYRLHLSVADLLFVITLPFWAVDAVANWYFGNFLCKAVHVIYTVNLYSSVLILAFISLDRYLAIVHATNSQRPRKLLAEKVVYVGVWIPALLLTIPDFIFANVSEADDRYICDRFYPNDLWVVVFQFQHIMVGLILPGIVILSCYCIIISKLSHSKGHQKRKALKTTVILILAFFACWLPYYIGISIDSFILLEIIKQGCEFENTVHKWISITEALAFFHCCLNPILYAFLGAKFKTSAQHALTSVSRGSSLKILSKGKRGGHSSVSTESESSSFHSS", "assay": "cell-based or functional assay"}, "[3]": {"target": "T3, human CXCR4 (on cells, membrane extracts or viral lipoparticles) (human, UniProt P61073 1-352)", "T3 construct": "whole, on cells; see assay; also called hCXCR4 VLPs; CXCR4-VLP", "T3 sequence (P61073 whole entry)": "as the sequence (P61073 whole entry, chain 1 of 2, other chains not shown) above", "assay": "ELISA, hCXCR4 VLPs"}, "[4]": {"target": "T4, IL23R, cell-expressed on human T cells (human, UniProt Q5VWK5 24-629)", "T4 sequence (looked up)": "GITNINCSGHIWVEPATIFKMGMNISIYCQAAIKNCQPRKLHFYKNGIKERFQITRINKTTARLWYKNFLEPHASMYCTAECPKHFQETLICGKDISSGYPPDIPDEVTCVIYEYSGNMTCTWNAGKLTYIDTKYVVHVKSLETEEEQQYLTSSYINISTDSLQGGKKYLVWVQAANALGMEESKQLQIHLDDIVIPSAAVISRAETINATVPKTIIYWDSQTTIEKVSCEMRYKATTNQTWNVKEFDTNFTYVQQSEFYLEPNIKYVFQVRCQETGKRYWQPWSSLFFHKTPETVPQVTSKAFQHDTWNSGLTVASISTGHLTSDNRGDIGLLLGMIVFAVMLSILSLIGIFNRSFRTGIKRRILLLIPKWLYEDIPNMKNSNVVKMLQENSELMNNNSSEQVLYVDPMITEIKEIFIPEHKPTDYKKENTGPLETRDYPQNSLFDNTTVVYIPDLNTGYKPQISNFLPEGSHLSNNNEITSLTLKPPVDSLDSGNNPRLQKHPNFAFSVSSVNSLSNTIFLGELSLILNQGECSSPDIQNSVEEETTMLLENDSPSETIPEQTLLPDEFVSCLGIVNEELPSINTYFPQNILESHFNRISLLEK", "assay": "cell-based or functional assay"}, "[5]": {"target": "T1, human CD4, cell-expressed", "assay": "FACS, MOLM-13 cells"}}}
{"binder": "03F11 (CD4#8, Table 10) (VHH) VHH: EVQLVESGGGSVQPGGSLTLSCGTSGRTFNVMGWFRQAPGKEREFVAAVRWSSTGIYYTQYADSVKSRFTISRDNAKNTVYLEMNSLKPEDTAVYYCAADTYNSNPARWDGYDFRGQGTQVTVSS", "values": [{"measurement": "IC50, HIV-1 BaL(R5) in PBMC", "setting": "[1]", "result": 610, "unit": "nM"}]}
{"binder": "IL12Rb2#2: 135A07 (VHH, also called LG135A07; IL12Rβ2#2) VHH: EVQLVESGGRLVQAGDSLRLSCAASGRTFTSYRMGWFRQAPGKEREFVSALRWSSGNIDYTYYADSVKGRFSISGDYAKNTVYLQMNSLKAEDTAVYYCAASTRWGVMESDTEYTSWGQGTLVTVSS", "values": [{"measurement": "fold difference in KD and ligand competition between the family members", "setting": "IL12Rβ2-Fc", "result": 3.5, "unit": "fold"}]}
{"binder": "281F12-25GS-03F11 (bispecific antibody, also called CXCR4#2-25GS-CD4#8) EVQLVESGGGLVQAGDSLRLSCAASGRAFSRYAMGWFRQAPGKEREFVAAIGWGPSKTNYADSVKGRFTISRDNAKNTVYLQMNTLKPEDTAVYSCAAKFVNTDSTWSRSEMYTYWGQGTQVTVSSGGGGSGGGGSGGGGSGGGGSGGGGSEVQLVESGGGSVQPGGSLTLSCGTSGRTFNVMGWFRQAPGKEREFVAAVRWSSTGIYYTQYADSVKSRFTISRDNAKNTVYLEMNSLKPEDTAVYYCAADTYNSNPARWDGYDFRGQGTQVTVSS", "values": [{"measurement": "IC50, HIV-1 NL 4.3(X4) in MT-4", "setting": "[2]", "result": 0.21, "unit": "nM"}, {"measurement": "IC50, HIV-1 NL 4.3(X4) in PBMC", "setting": "[2]", "result": 0.12, "unit": "nM"}, {"measurement": "IC50, HIV-1 NL 4.3 (X4) in U87", "setting": "[2]", "result": 2.67, "unit": "nM"}, {"measurement": "binding result", "setting": "[3]", "result": "binds"}]}
{"binder": "IL23R#19-CD4#8 (bispecific antibody, also called BI#42; T023200042) EVQLVESGGGLVQPGGSLTLSCVASGRTFSTDVMGWFRQAPGKEREFVAAHRTSGISTVYAASVKGRFTISRDNAKNTVYLGMKSLKPEDTAVYVCAAGSDASGGYDYWGQGTLVTVSSGGGGSGGGGSGGGGSGGGGSGGGGSGGGGSGGGGSEVQLVESGGGSVQPGGSLTLSCGTSGRTFNVMGWFRQAPGKEREFVAAVRWSSTGIYYTQYADSVKSRFTISRDNAKNTVYLEMNSLKPEDTAVYYCAADTYNSNPARWDGYDFRGQGTLVTVSS", "values": [{"measurement": "IC50, IL-17 release PBMC D840", "setting": "[4]", "result": 58.9, "unit": "nM"}, {"measurement": "fold ctrl, IL-17 release PBMC D840", "setting": "[4]", "result": 1.7, "unit": "fold"}, {"measurement": "binding result", "setting": "[5]", "result": "binds"}]}
